Laboratory results: US7966133B2, “Method of identifying a potential substrates of an O-methyltransferase” (The Salk Institute for Biological Studies, priority 2000, dated 2011)
Residue numbers refer to the chain shown, from its start. Names may count otherwise. “Also recorded” adds a separate entry of the source.

B1: H278L: ChOMT catalytic histidine mutant, His 278 to leucine (protein, listed as Medicago sativa)
chain: MGNSYITKEDNQISATSEQTEDSACLSAMVLTTNLVYPAVLNAAIDLNLFEIIAKATPPGAFMSPSEIASKLPASTQHSDLPNRLDRMLRLLASYSVLTSTTRTIEDGGAERVYGLSMVGKYLVPDESRGYLASFTTFLCYPALLQVWMNFKEAVVDEDIDLFKNVHGVTKYEFMGKDKKMNQIFNKSMVDVCATEMKRMLEIYTGFEGISTLVDVGGGSGRNLELIISKYPLIKGINFDLPQVIENAPPLSGIEHVGGDMFASVPQGDAMILKAVCLNWSDEKCIEFLSNCHKALSPNGKVIIVEFILPEEPNTSEESKLVSTLDNLMFITVGGRERTEKQYEKLSKLSGFSKFQVACRAFNSLGVMEFYK
B2: H278A: ChOMT catalytic histidine mutant, His 278 to alanine (protein, listed as Medicago sativa)
chain: B1 chain with L278A
B3: H278N: ChOMT catalytic histidine mutant, His 278 to asparagine (protein, listed as Medicago sativa)
chain: B1 chain with L278N
B4: H278Q: ChOMT catalytic histidine mutant, His 278 to glutamine (protein, listed as Medicago sativa)
chain: B1 chain with L278Q
B5: H278K: ChOMT catalytic histidine mutant, His 278 to lysine (protein, listed as Medicago sativa)
chain: B1 chain with L278K
B6: IOMT: Isoflavone O-methyltransferase (SEQ ID NO:4) from Medicago sativa L, recombinant wild type (protein, listed as Medicago sativa)
chain: MASSINGRKPSEIFKAQALLYKHIYAFIDSMSLKWAVGMNIPNIIHNHGKPISLSNLVSILQVPSSKIGNVRRLMRYLAHNGFFEIITKEEESYALTVASELLVRGSDLCLAPMVECVLDPTLSGSYHELKKWIYEEDLTLFGVTLGSGFWDFLDKNPEYNTSFNDAMASDSKLINLALRDCDFVFDGLESIVDVGGGTGTTAKIICETFPKLKCIVFDRPQVVENLSGSNNLTYVGGDMFTSIPNADAVLLKYILHNWTDKDCLRILKKCKEAVTNDGKRGKVTIIDMVINEKKDENQVTQIKLLMDVNMACLNGKERNEEEWKKLFIEAGFQHYKISPLTGFLSLIEIYP

Key:
[1] = aqueous solution; cited from earlier work
nod genes = conditions: among compounds released from alfalfa roots; via nodD1 and nodD2; cited from earlier work
ChOMT = experiment: Qualitative enzyme activity assay, ChOMT (14C-SAM, TLC autoradiography); assay type: biochemical, Medicago sativa L; conditions: 20 μg protein, 500 μM 2′,4,4′-trihydroxychalcone, 500 μM 14C-SAM, 2 hr room temperature; FIG. 7A
IOMT = experiment: Qualitative enzyme activity assay, IOMT (14C-SAM, TLC autoradiography); assay type: biochemical, Medicago sativa L; conditions: expressed in E. coli

Molecule | methyltransferase activity of ChOMT His 278 mutants (ChOMT) | other results
O=C1c2ccc(O)cc2OC(O)C1c1ccc(O)cc1 (centres unmarked) [2,7,4′-trihydroxyisoflavanone] |  | aqueous stability [1]: lack of aqueous stability; also recorded: unstable in aqueous solution
COc1cc(O)ccc1C(=O)/C=C/c1ccc(O)cc1 [4,4′-dihydroxy-2′-methoxychalcone] |  | transcriptional activation of nod genes (nod genes): most efficient transcriptional activator
B1 | completely eliminated methyltransferase activity | 
B2 | completely eliminated methyltransferase activity | 
B3 | completely eliminated methyltransferase activity | 
B4 | completely eliminated methyltransferase activity | 
B5 | completely eliminated methyltransferase activity | 
B6 |  | specific activity of recombinant IOMT (IOMT): comparable to published values
